Values belong to the molecule of their own block, whether it stands above or below them.
Experiments:
DarB = DarB (Bacillus subtilis, UniProt O31698); test: biochemical
Rel = molecular target: T1, Rel (Bacillus subtilis, UniProt O54408); test: hydrolase assay, GTP formation by LC-MS/MS; type: biochemical; conditions: 1 mM pppGpp, 1 mM MnCl2, 5 mM Mg(OAc)2, HEPES:Polymix pH 7.5, 37 °C; without DarB
T1 construct: gene relA; full-length (734 residues), 10xHis-SUMO fusion from plasmid pVHP186 in E. coli Rosetta(DE3), SUMO tag cleaved, RNA-free
T1 sequence (O54408 whole entry, the tested form may be a part): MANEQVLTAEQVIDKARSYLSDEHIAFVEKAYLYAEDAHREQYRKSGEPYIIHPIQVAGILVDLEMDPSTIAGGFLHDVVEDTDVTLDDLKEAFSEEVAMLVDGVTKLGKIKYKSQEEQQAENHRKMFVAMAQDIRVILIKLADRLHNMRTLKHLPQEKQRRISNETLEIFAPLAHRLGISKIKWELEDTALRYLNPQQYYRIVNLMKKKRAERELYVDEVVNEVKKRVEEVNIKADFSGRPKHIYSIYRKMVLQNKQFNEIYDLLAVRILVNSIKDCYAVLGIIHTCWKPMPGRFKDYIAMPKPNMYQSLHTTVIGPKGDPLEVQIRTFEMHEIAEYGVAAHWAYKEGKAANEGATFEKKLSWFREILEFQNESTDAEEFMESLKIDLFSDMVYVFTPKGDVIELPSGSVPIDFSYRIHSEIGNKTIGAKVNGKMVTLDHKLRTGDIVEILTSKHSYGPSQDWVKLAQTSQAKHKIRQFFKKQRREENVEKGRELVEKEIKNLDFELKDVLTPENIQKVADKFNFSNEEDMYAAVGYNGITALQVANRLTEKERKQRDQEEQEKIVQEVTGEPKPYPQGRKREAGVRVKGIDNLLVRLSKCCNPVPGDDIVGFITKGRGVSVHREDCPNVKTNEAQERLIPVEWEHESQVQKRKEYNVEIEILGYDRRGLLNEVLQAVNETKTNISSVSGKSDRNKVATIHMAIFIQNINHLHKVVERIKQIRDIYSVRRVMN

[1] = molecular target: T2, Rel^NTD, purified, as used in SEC-MALS and ITC (B. subtilis 168, UniProt O54408 1-391); test: ITC; 10 µM Rel^NTD in the cell, 100 µM DarB in the syringe, 50 mM Tris-HCl pH 8.3, 200 mM NaCl, 20 °C; conditions: both partners purified
T2 construct: Rel, Bacillus subtilis 168, aa 1-391 (HYD and SYN domains); the only expression plasmid named is pGP3350 (Strep-tagged); The SEC-MALS methods speak of 'purified tag-free proteins', but no removal of the Strep tag from Rel^NTD is described; Monomer by SEC-MALS; source: E. coli Rosetta(DE3), purified (StrepTactin)
T2 sequence (O54408 1-391): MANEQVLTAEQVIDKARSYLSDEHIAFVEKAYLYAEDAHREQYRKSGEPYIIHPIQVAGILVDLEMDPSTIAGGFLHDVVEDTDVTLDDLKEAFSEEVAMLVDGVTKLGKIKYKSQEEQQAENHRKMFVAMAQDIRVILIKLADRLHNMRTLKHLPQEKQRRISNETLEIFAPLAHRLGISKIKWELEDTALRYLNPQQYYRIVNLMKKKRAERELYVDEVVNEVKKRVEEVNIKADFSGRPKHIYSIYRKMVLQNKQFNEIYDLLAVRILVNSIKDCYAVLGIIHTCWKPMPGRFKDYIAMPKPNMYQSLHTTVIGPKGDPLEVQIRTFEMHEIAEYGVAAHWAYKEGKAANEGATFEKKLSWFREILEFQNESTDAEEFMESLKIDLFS

[2] = molecular target: the molecule itself; test: SEC-MALS; Rel^NTD and DarB alone or pre-mixed 1:1 (~1 mg/ml each) in 1× ZAP buffer (50 mM Tris-HCl, 200 mM NaCl, pH 7.5), Superdex 200 10/300GL; fractions on SDS-PAGE
[3] = molecular target: Rel, full length, purified, SUMO tag removed (B. subtilis, UniProt O54408 1-734); test: cell-based or functional assay
Rel, full length, purified, SUMO tag removed, sequence (O54408 whole entry): as the sequence (O54408 whole entry, the tested form may be a part) above

DarB, sequence (O31698 whole entry): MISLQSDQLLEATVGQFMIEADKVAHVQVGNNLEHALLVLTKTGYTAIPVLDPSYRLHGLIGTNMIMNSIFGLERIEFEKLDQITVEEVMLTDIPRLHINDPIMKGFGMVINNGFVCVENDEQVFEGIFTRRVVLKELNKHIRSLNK

- Kd (DarB): ~45 nM
Molecule: Nc1ncnc2c1ncn2[C@@H]1O[C@@H]2COP(=O)(O)O[C@H]3[C@@H](O)[C@H](n4cnc5c(N)ncnc54)O[C@@H]3COP(=O)(O)O[C@H]2[C@H]1O [c-di-AMP]

Molecule: Nc1nc2c(ncn2[C@@H]2O[C@H](COP(=O)(O)OP(=O)(O)OP(=O)(O)O)[C@@H](OP(=O)(O)OP(=O)(O)O)[C@H]2O)c(=O)[nH]1 [pppGpp]
- hydrolase assay, GTP formation by LC-MS/MS (Rel): we determined the formation of GTP resulting from the hydrolysis of pppGpp

- Kd [1]: 650 nM
- stoichiometry N [1]: 1
- pppGpp hydrolase activity of purified Rel (0.5 µM) with DarB (5 µM), against Rel alone (8.7 pmol of GTP per pmol of Rel per minute) [3]: 6 fold
- pppGpp synthetase activity of purified Rel (0.5 µM) with DarB (5 µM), against Rel alone (1.1 pmol pppGpp per pmol of Rel per minute) [3]: 3 fold
B1: DarB, purified, SUMO tag removed (natural protein, B. subtilis 168)
chain: ISLQSDQLLEATVGQFMIEADKVAHVQVGNNLEHALLVLTKTGYTAIPVLDPSYRLHGLIGTNMIMNSIFGLERIEFEKLDQITVEEVMLTDIPRLHINDPIMKGFGMVINNGFVCVENDEQVFEGIFTRRVVLKELNKHIRSLNK
notes: darB amplified from chromosomal DNA and cloned into pET-SUMO (pGP2972); Dimer by SEC-MALS; Apo form as made in E. coli; in some experiments preincubated or saturated with c-di-AMP (written as a condition of the assay); also called apo-DarB; c-di-AMP receptor DarB; source: E. coli Rosetta(DE3), purified (Ni-NTA; SUMO tag removed with SUMO protease)
- stoichiometry N [2]: 2
